According to patent US20240228629A1 (CITY OF HOPE, published 2024):

Assays:
[1] = biological target: T1, BSA (bovine, UniProt P02769); assay: ELISA on coated recombinant proteins, title "Titer of purified mAb"; antibody concentration not given
T1 construct: also called bovine serum albumin

[2] = biological target: T2, D4-IgA1 (extracellular domain IV of human EGFR fused with human IgA1.Fc) (human); assay: ELISA: EGFR-IgA1 immobilised in microwells, hybridoma culture supernatant, goat anti-mouse IgG.Fc-HRP, OD450
T2 construct: also called EGFR-IgA1; human EGFR-IgA
T2 chain: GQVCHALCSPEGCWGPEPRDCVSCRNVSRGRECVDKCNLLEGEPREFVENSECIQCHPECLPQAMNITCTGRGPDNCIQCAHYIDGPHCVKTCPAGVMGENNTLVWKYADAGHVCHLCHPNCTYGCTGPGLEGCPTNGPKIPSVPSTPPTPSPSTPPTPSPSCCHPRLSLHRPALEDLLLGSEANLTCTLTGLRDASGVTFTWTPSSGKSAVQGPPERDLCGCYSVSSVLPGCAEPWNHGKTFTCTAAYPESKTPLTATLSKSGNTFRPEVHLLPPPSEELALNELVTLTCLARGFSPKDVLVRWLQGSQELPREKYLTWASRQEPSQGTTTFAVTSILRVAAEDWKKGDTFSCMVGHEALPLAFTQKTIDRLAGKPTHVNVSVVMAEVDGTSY

[3] = biological target: T3, EGFRviii on U87-EGFRviii cells (human, UniProt P00533); assay: flow cytometry on U87-EGFRviii cells, 1, 10, 100 ug/ml, anti-Fc Alexa-647 secondary
T3 construct: the U87-EGFRviii cells also carry whatever EGFR the parent U87 line carries; a shift on these cells cannot be split between the two forms
Description: The cells were detached by trypsin and incubated with 1, 10, or 100 ug/ml EGFR Ab in 2% BSA in PBS at 4° ° C. After 30 minutes, cells were washed with 2% BSA in PBS. […] The cells were analyzed by flow cytometry after washing.

[4] = biological target: T4, EGFR domain IV (human, UniProt P00533 505-645); assay: SPR, EGFR domain IV immobilised on CM5 chip, Fab injected
T4 construct: Immobilised on a CM5 chip for SPR; also called domain IV of EGFR; EGFR D4
Description: EGFR domain IV was immobilized on a CM5 chip at a density of 500 RU through EDC/NHS coupling. […] In another experiment, EGFR domain IV was again immobilized on a CM5 chip at a density of 500 RU through EDC/NHS coupling. […] The samples were injected at concentrations of 300 nM, 100 nM, 30 nM, 10 nM, and 3 nM (FIGS. 15A-15C). The sensorgram curves were subsequently analyzed.

[5] = biological target: T4, EGFR domain IV; assay: SPR, EGFR domain IV immobilised on CM5 chip, IgG injected
[6] = biological target: T4, EGFR domain IV; assay: as above; remark: listed apart in the source
[7] = biological target: T4, EGFR domain IV; assay: SPR, EGFR domain IV immobilised on CM5 chip, IgG injected; Table 18 (second kinetic set, apart from Table 17)

T1 sequence (P02769 25-607 limits assumed): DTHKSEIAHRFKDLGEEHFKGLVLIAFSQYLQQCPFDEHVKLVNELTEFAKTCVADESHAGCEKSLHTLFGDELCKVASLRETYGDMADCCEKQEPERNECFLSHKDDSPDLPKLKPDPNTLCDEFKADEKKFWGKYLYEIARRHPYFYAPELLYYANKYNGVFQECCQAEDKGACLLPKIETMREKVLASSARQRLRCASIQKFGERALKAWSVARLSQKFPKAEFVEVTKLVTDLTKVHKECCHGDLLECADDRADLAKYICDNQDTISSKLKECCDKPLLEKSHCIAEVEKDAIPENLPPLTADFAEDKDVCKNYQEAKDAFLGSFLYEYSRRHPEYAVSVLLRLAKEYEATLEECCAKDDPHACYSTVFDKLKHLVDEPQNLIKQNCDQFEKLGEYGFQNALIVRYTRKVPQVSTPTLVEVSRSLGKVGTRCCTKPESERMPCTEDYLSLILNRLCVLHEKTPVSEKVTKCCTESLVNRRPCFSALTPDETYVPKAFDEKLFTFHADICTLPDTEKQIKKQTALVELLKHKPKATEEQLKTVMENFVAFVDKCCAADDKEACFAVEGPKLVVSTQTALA

B1: 5C8 hybridoma clone antibody (mouse, culture supernatant) (antibody, V domains shown)
VH: EVQLQQSGPELVKTGASVKISCKASGYSFTGYYMHWVKQSHGKSLEWIGYINCYNGAINYNQKFKGKATFTVDTSSSTVYMQFNSLTSEDSAVYYCVRAGIHYDYDEAWFAYWGQGTLVTVSA
VL: QAVVTQESALTTSPGETVTLTCRSSTGPVIIRNYANWVQEKPDHLFTGLIGGTNNRAPGVPARFSGSLIGDKAALTITGAQTEDEAIYFCALWYNNHWVFGGGTKLTVL
notes: Mouse antibody from hybridoma supernatant; also called 5C8 clone; Clone 5C8
[1]
  binding result: no binding
[2]
  binding result: binds

B2: EGFRD4-34Ab (antibody, V domains shown)
VH: QIQLVQSGPELKKPGETVKISCKASGYTFTNYGMNWVKQAPGKGLKWMGWINTYTGDPTYADDFKGRFAFSLETSASTAYLQINNLKNEDMATYFCARRISTMITTWFAYWGQGTLVTVSA
VL: DIQMTQSPASLSASVGETVTITCRASENIYSYLAWFQQRQGKSPQLLVYNAKTLTEGVPSRFSGSGSGTQFSLKINSLQPEDFGSYYCQHYQVTPYTFGGGTKLEIK
notes: also called Clone # 34
[3]
  binding result: binds

B3: EGFRD4-5C8 Fab (Fab, V domains shown)
VH: B1 VH
VL: B1 VL
notes: Fab of clone 5C8
[4]
  Kd: 170 nM
  koff: 0.0305 s⁻¹
  kon: 179000 M⁻¹ s⁻¹

B4: chimeric anti-domain IV EGFR antibody clone 5C8 (EGFRD4-5C8) (antibody, V domains shown)
VH: B1 VH
VL: B1 VL
notes: also called 5C8 IgG; 5C8 mAb
[5]
  Kd: 0.487 nM
  koff: 0.000249 s⁻¹
  kon: 512000 M⁻¹ s⁻¹
[6]
  koff: 0.00013 s⁻¹
  kon: 604000 M⁻¹ s⁻¹
[7]
  Kd: 0.214 nM
